Measured values published in patent US9340584 (dated 2016).

Biological target: human serum albumin (human, UniProt P02768 25-609)
Experiment: SPR

Binder | Kd [nM]
RLuc-F3 (other) MVKQIESKTAFQEALDAAGDKLVVVDFSATGGTPGRRNRWSGPSKMIKPFFHSLSEKYSNVIFLEVDVDDAQDVASEAFCEFCFPFLPTFQFFKKGQKVGEFSGANKEKLEATINELV | 640
mutant TRX protein F3 (HSA binder, purified) (designed binder) MVKQIESKTAFQEALDAAGDKLVVVDFSATGGTPGRRNRWSGPSKMIKPFFHSLSEKYSNVIFLEVDVDDAQDVASEAFCEFCFPFLPTFQFFKKGQKVGEFSGANKEKLEATINELV | 520
mutant TRX protein E2 (HSA binder, purified) (designed binder) MVKQIESKTAFQEALDAAGDKLVVVDFSATKNEKRDVAEWSGPSKMIKPFFHSLSEKYSNVIFLEVDVDDAQDVASEAFGFFGFPVLPTFQFFKKGQKVGEFSGANKEKLEATINELV | 830
RLuc-E2 (other) MVKQIESKTAFQEALDAAGDKLVVVDFSATKNEKRDVAEWSGPSKMIKPFFHSLSEKYSNVIFLEVDVDDAQDVASEAFGFFGFPVLPTFQFFKKGQKVGEFSGANKEKLEATINELV | 1300
RLuc-H6 (other) MVKQIESKTAFQEALDAAGDKLVVVDFSATDRKPWKTRGWSGPSKMIKPFFHSLSEKYSNVIFLEVDVDDAQDVASEAFGLFSFPLLPTFQFFKKGQKVGEFSGANKEKLEATINELV | 2460
mutant TRX protein H6 (HSA binder, purified) (designed binder) MVKQIESKTAFQEALDAAGDKLVVVDFSATDRKPWKTRGWSGPSKMIKPFFHSLSEKYSNVIFLEVDVDDAQDVASEAFGLFSFPLLPTFQFFKKGQKVGEFSGANKEKLEATINELV | 870
